Test results: patent US20260085129A1 (ECO ANIMAL HEALTH, published 2026)

Biological target: T1, porcine CD163, membrane-bound form on porcine pulmonary alveolar macrophage (pPAM) WT cells (porcine, UniProt Q2VL90 47-1115)
T1 construct: Native CD163 on primary cells; also called membrane CD163; cell-surface CD163
T1 sequence: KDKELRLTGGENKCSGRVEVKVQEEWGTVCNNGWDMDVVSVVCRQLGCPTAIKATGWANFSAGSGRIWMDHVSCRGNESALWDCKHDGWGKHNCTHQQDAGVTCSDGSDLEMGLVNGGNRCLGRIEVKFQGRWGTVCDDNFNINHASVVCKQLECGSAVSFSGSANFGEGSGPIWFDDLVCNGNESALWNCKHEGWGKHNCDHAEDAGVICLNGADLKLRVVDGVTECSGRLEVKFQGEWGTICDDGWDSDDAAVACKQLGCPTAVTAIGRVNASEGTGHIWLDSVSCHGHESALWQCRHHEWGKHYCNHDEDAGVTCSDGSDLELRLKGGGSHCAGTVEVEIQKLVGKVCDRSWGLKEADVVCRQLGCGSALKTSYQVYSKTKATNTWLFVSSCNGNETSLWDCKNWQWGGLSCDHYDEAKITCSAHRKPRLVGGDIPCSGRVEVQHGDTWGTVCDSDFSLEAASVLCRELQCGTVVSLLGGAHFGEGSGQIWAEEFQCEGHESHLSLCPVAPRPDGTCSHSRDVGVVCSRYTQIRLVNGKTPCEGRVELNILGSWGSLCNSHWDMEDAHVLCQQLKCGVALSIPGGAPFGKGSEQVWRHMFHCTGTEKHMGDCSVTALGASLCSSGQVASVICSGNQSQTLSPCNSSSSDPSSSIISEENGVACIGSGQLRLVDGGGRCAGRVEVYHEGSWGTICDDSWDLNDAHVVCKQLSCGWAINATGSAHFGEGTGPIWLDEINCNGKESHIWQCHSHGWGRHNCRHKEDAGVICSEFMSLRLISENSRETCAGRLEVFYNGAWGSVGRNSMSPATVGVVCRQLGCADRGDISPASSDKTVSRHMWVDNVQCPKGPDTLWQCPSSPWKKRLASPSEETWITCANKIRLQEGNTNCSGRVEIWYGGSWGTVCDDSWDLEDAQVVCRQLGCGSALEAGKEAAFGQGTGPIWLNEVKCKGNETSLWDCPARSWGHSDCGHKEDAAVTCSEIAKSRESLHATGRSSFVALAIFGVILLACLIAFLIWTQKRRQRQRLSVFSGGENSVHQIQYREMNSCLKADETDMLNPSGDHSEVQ
Assay: dose-response FACS on pPAM WT cells, anti-FLAG-biotin and streptavidin R-PE detection
Description: Biparatopic and triparatopic antibody constructs in PBS (pH7.4) were diluted in a 3-fold serial dilutions from 150 nM down to 0.023 nM in FACS buffer (0.5% FBS, 0.5 mM EDTA in 1×PBS pH7.4). Biparatopic and triparatopic candidates were incubated with anti-FLAG-Biotin (Sigma, Cat. nr. F9291), for 30 min on ice with shaking. This mixture was added to pPAM WT cells and incubated for 60 min on ice with gentle shaking. Cells were washed 3×with 150 μl/well of FACS buffer and incubated with 50 μl/well of the secondary detection reagent Streptavidin R-P.E. conjugate antibody (Invitrogen, Cat. nr. SA10044) for 30 min on ice with shaking and protected from light. Cells were then washed 3× with 150 μl/well of FACS Buffer and resuspended in 50 μl/well of FACS buffer to be measured on a FACS machine (Attune™ N×T), and a total of 10000 cells were acquired per sample.

Binder	EC50 [nM]
03E11 + 17B11 + 03D03 2(G4S) triparatopic VHH construct (bispecific antibody, Triparatopic; not shown: FLAG and His tags) QVQLQESGGGLVQVGSSLRLSCVTSGRTPSRYVMGWFRQAPGQEREFVAAISWSGRAPYADSVKGRFTISRDNAKNTVYLQMNSLKPEDTGVYYCAGGEGAIKWTTLDAYDYWGQGTQVTVSSGGGGSGGGGSQVQLVESGGGLVQAGGSLRLSCAASGRTFSSYAMGWFRQTPGKDREFVARIGWTGGTTIYADSVKGRFTISRDNAKNTVYLQMNSLKPEDTAVYYCAADQAGWRTAGVRNTYEYDYWGQGTQVTVSSGGGGSGGGGSQLQLVESGGGLVQPGGSLRLSCAASGFTLDDYTIGWFRQAPGKEREGVSCINSITSNTYYADSVKGRFTISRDNAKNTVYLQMNSLTAEDTAIYYCAADSGLFSGSSCLKYRAMRFGSWGQGTQVTVSS	18.2
03E11 + 03D03 2(G4S) biparatopic VHH construct (bispecific antibody, Biparatopic: two anti-porcine CD163 VHHs in one chain; also called 19-17; 03D03+03E11; not shown: FLAG and His tags) QVQLQESGGGLVQVGSSLRLSCVTSGRTPSRYVMGWFRQAPGQEREFVAAISWSGRAPYADSVKGRFTISRDNAKNTVYLQMNSLKPEDTGVYYCAGGEGAIKWTTLDAYDYWGQGTQVTVSSGGGGSGGGGSQLQLVESGGGLVQPGGSLRLSCAASGFTLDDYTIGWFRQAPGKEREGVSCINSITSNTYYADSVKGRFTISRDNAKNTVYLQMNSLTAEDTAIYYCAADSGLFSGSSCLKYRAMRFGSWGQGTQVTVSS	8.4
03E11 + 17B11 2(G4S) biparatopic VHH construct (bispecific antibody, Biparatopic; not shown: FLAG and His tags) QVQLQESGGGLVQVGSSLRLSCVTSGRTPSRYVMGWFRQAPGQEREFVAAISWSGRAPYADSVKGRFTISRDNAKNTVYLQMNSLKPEDTGVYYCAGGEGAIKWTTLDAYDYWGQGTQVTVSSGGGGSGGGGSQVQLVESGGGLVQAGGSLRLSCAASGRTFSSYAMGWFRQTPGKDREFVARIGWTGGTTIYADSVKGRFTISRDNAKNTVYLQMNSLKPEDTAVYYCAADQAGWRTAGVRNTYEYDYWGQGTQVTVSS	6.8
03E11 + 17B11 5(G4S) biparatopic VHH construct (bispecific antibody, Biparatopic; not shown: FLAG and His tags) QVQLQESGGGLVQVGSSLRLSCVTSGRTPSRYVMGWFRQAPGQEREFVAAISWSGRAPYADSVKGRFTISRDNAKNTVYLQMNSLKPEDTGVYYCAGGEGAIKWTTLDAYDYWGQGTQVTVSSGGGGSGGGGSGGGGSGGGGSGGGGSQVQLVESGGGLVQAGGSLRLSCAASGRTFSSYAMGWFRQTPGKDREFVARIGWTGGTTIYADSVKGRFTISRDNAKNTVYLQMNSLKPEDTAVYYCAADQAGWRTAGVRNTYEYDYWGQGTQVTVSS	8.4
03E11 + 03D03 5(G4S) biparatopic VHH construct (bispecific antibody, Biparatopic; not shown: FLAG and His tags) QVQLQESGGGLVQVGSSLRLSCVTSGRTPSRYVMGWFRQAPGQEREFVAAISWSGRAPYADSVKGRFTISRDNAKNTVYLQMNSLKPEDTGVYYCAGGEGAIKWTTLDAYDYWGQGTQVTVSSGGGGSGGGGSGGGGSGGGGSGGGGSQLQLVESGGGLVQPGGSLRLSCAASGFTLDDYTIGWFRQAPGKEREGVSCINSITSNTYYADSVKGRFTISRDNAKNTVYLQMNSLTAEDTAIYYCAADSGLFSGSSCLKYRAMRFGSWGQGTQVTVSS	6.5
17B11 + 03D03 2(G4S) biparatopic VHH construct (bispecific antibody, Biparatopic; not shown: FLAG and His tags) QVQLVESGGGLVQAGGSLRLSCAASGRTFSSYAMGWFRQTPGKDREFVARIGWTGGTTIYADSVKGRFTISRDNAKNTVYLQMNSLKPEDTAVYYCAADQAGWRTAGVRNTYEYDYWGQGTQVTVSSGGGGSGGGGSQLQLVESGGGLVQPGGSLRLSCAASGFTLDDYTIGWFRQAPGKEREGVSCINSITSNTYYADSVKGRFTISRDNAKNTVYLQMNSLTAEDTAIYYCAADSGLFSGSSCLKYRAMRFGSWGQGTQVTVSS	6.6
17B11 + 03D03 5(G4S) biparatopic VHH construct (bispecific antibody, Biparatopic; not shown: FLAG and His tags) QVQLVESGGGLVQAGGSLRLSCAASGRTFSSYAMGWFRQTPGKDREFVARIGWTGGTTIYADSVKGRFTISRDNAKNTVYLQMNSLKPEDTAVYYCAADQAGWRTAGVRNTYEYDYWGQGTQVTVSSGGGGSGGGGSGGGGSGGGGSGGGGSQLQLVESGGGLVQPGGSLRLSCAASGFTLDDYTIGWFRQAPGKEREGVSCINSITSNTYYADSVKGRFTISRDNAKNTVYLQMNSLTAEDTAIYYCAADSGLFSGSSCLKYRAMRFGSWGQGTQVTVSS	6.6
